Assay [1] deals with T1, MICA*004 expressed on C1R transfectant cells (human, UniProt Q29983 24-297, Glycosylated on cells; the letters do not carry this.).
T1 construct: also called C1R-MICA*004; C1R-MICA*04
T1 chain: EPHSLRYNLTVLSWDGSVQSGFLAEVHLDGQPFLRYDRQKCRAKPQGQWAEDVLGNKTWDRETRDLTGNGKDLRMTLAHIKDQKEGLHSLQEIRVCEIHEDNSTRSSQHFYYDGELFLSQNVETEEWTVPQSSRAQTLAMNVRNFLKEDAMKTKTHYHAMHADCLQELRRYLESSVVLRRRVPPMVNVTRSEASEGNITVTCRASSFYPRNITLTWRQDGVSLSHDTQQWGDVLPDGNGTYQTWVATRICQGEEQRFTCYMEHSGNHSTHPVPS
Kind of assay: flow cytometry, MFI against antibody concentration on C1R-MICA*04 cells. For orientation: A flow cytometer gives signals particle by particle.

Assay [2] addresses T2, MICA*008 expressed on C1R transfectant cells (human, UniProt Q29983 24-297, Glycosylated on cells; the letters do not carry this.).
T2 construct: also called C1R-MICA*008; C1R-MICA*08
T2 chain: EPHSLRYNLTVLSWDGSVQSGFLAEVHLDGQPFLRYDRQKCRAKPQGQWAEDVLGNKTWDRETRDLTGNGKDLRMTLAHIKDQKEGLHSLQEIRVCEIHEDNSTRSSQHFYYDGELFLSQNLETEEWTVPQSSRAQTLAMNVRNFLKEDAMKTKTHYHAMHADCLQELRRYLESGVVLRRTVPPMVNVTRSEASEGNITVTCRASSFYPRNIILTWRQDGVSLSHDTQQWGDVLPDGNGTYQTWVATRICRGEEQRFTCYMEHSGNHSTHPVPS
Kind of assay: flow cytometry, MFI against antibody concentration on C1R-MICA*08 cells.

In assay [3] the target is T3, MICA*007 expressed on C1R transfectant cells (human, UniProt Q29983 24-297, Glycosylated on cells; the letters do not carry this.).
T3 construct: also called C1R-MICA*007; C1R-MICA*07
T3 chain: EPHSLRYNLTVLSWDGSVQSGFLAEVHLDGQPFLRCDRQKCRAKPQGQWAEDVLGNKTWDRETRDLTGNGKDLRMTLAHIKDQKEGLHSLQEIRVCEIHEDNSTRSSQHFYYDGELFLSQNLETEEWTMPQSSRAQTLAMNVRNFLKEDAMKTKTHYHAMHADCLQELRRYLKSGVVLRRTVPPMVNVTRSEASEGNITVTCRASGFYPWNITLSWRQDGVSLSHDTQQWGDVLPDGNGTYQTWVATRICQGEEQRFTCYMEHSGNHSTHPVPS
The assay can be described thus: flow cytometry, MFI against antibody concentration on C1R-MICA*07 cells.

The target in assay [4] is T4, MICA*001 expressed on transfected cells (human).
T4 construct: the cells carry the complete allele; also called C1R-MICA*001; C1R-MICA*01
T4 chain: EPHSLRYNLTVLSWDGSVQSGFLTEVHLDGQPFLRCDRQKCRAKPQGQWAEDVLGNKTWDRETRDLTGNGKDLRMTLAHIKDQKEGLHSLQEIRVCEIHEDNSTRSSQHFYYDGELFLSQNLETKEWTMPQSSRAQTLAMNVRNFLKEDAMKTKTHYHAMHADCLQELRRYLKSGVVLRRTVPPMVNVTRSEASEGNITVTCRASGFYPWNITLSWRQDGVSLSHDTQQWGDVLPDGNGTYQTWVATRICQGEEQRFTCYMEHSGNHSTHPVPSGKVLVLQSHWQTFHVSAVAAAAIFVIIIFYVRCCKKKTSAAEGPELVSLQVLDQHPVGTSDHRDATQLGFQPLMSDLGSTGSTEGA
The assay can be described thus: flow cytometry, MFI against antibody concentration on C1R-MICA*01 cells. The procedure:
(§1) The binding of antibodies obtained from the first and second immunization series (including 9C10, 20C6 and 16A8) were tested for binding to MICA-expressing CR1 transfectant cells C1R-MICA*001, C1R-MICA*004, C1R-MICA*007 and C1R-MICA*008 (Pr. A. Steinle, Eberhard-Karls University Tuebingen, Germany) described in Salih et al. (2003) Blood 102(4): […]. Binding was analyzed by flow cytometry.
(§2) Cells were harvested and stained in PBS 1×/BSA 0,2%/EDTA 2 mM buffer during 30 minutes at 4° C. using a dose-range of the anti-MICA mAbs. After two washes in staining buffer, cells were stained for 30 min at 4° C. with goat anti-mouse (H+L)-PE polyclonal antibodies (1/200). After two washes, stainings were acquired on a BD FACS Canto II and analyzed using the FlowJo software.

The target of assay [5] is T5, recombinant human MICA extracellular domain recombinant-Fc protein (MICA*019 allele) (human, UniProt Q29983 24-297).
T5 construct: Bought from R&D Systems; also called MICA*019-Fc; MICA-Fc; not shown: Fc part of the bought fusion protein (R&D Systems)
T5 chain: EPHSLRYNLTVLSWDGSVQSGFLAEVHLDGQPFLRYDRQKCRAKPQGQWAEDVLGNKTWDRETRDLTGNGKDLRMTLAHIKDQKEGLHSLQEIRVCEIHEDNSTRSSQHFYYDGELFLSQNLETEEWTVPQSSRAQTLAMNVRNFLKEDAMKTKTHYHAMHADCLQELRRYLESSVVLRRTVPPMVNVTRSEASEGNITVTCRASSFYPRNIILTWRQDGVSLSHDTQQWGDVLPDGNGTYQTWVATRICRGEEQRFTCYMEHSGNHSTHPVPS
The assay can be described thus: SPR Biacore T100 (FIG. 1). The procedure: The binding of 9C10, 20C6 and 16A8 to either recombinant human MICA extracellular domain recombinant protein monomers or dimers (MICA*019 allele-Fc protein or MICA*001-His protein) as well as other NKG2D ligands MICB and ULBP1-2 was analyzed by Surface Plasmon Resonance (SPR) using a Biacore T100 apparatus to obtain monovalent and bivalent affinity, respectively. Biotinylated anti-MICA antibodies were injected at a constant rate of 10 μl/min over the Sensor Chip CAP flow-cells comprising Biotin CAPture Reagent. MICA-Fc or MICA-His protein, MICB-Fc, ULBP1-Fc or ULBP2-Fc protein is then injected successively (range of concentrations between 0.01-100 nM), with regeneration between injections, and in increasing order over two flowcells simultaneously. Curves are fitted using Biacore T100 Evaluation software.
(a) General Biacore T100 methods. SPR measurements were performed on a Biacore T100 apparatus (Biacore GE Healthcare) at 25° C. In all Biacore experiments HBS-EP+ buffer (Biacore GE Healthcare) or 10 mM sodium acetate pH 7.4, 150 mM NaCl, 0.05% P20 served as running buffer and sensorgrams were analyzed with Biaevaluation 4.1 and Biacore T100 Evaluation software. Recombinant human and mouse TLR3 were purchased from R&D Systems.
In general terms: In SPR one partner is held on a chip, and binding of the other changes the refractive index at the surface.

Assay [6] has as its target T3, MICA*007 expressed on C1R transfectant …. The assay can be described thus: flow cytometry, MFI against antibody concentration on C1R-MICA*07 cells. As for the experimental part: as §1, §2
In assay [7] the target is T2, MICA*008 expressed on C1R transfectant …. The assay can be described thus: flow cytometry on C1R-MICA*008 cells, 3-parameter logistic fit. As for the experimental part:
as §1, §2
(§3) Antibodies 9C10, 20C6 and 16A8 bound to each of the C1R-MICA*001, C1R-MICA*004, C1R-MICA*007 and C1R-MICA*008 cells (see FIGS. 3A, 3B and 3C for antibodies 9C10, 20C6 and 16A8 respectively). […] EC50 values are shown in Table C in μg/ml (calculated using a 3-parameter logistic fit).

The target of assay [8] is T1, MICA*004 expressed on C1R transfectant …. Kind of assay: flow cytometry on C1R-MICA*004 cells, 3-parameter logistic fit. As for the experimental part:
as §1, §2, §3

Assay [9] has as its target T3, MICA*007 expressed on C1R transfectant …. Kind of assay: flow cytometry on C1R-MICA*007 cells, 3-parameter logistic fit. As for the experimental part:
as §1, §2, §3

For assay [10], the target named is T4, MICA*001 expressed on transfected cells. The assay can be described thus: flow cytometry on C1R-MICA*001 cells, 3-parameter logistic fit. The procedure: as §1, §2, §3
Assay [11] deals with T1, MICA*004 expressed on C1R transfectant …. Kind of assay: flow cytometry, MFI against antibody concentration on C1R-MICA*04 cells. As for the experimental part:
as §1, §2

Assay [12] concerns the target T2, MICA*008 expressed on C1R transfectant …. Kind of assay: flow cytometry, MFI against antibody concentration on C1R-MICA*08 cells. As for the experimental part: as §1, §2

The values that follow come from patent US20150191542A1 (INNATE PHARMA S A, published 2015).

Like-named read-outs stand apart in the source and are kept apart here.

What is called EC50 (read off the curve) is the concentration giving half of the maximal effect. A higher EC50 (read off the curve) goes with a need for much substance. In general, EC50 refers to the concentration that produces a half-maximal response. Higher therefore signals a need for much substance.

B1: CHG1-M-MIA-15F9 (antibody, V domains shown)
VH: DVQLQESGPDLVKPSQSLSLTCTVTGYSITSGYSWHWIRQFPGNKLEWMGFIHYSGSTDYNPSLKSRISLTRDTSKNQFFLQLNSVSTEDTATYYCAKDYGHWYFDVWGAGTTVTVSS
VL: SIVMTQTPKFLLVSAGDRVTITCKASQSVSYDVAWYQQKPGQSPKLLIFYASNRYTGVPARFTGSGYGTDFTFTISTVQAEDLAVYFCQQDYSSLTFGAGTKLELK
With B1, the “EC50 (read off the curve)” value in assay [1] is around 0.5 µg/mL; in assay [2] it was around 0.8 µg/mL. Besides, the binding result in [3] is “binds”.

B2: CHG1-M-MIA-18E8 (antibody, V domains shown)
VH: DVQLQESGPDLVNPSQSLSLICTVTGYSITSDYSWHWIRQFPGNKLEWMGNIHYSGRINYNPSLRSRISITRDTSKNQFFLQLISVTTEDTATYYCATRRTFGNFEDYWGQGTTLTVSS
VL: QIVLSQSPATLSVSPGEKVTMTCRSSSSVNYMHWYQQKPGSSPKPWIYATSTLASGVPARFSGSGSGTSYSLTISRVEAEDAATYYCQQWSSNPLTFGAGTKLELK
B2: the “EC50 (read off the curve)” value in assay [4] is around 0.5 µg/mL.

B3: CHG1-M-MIA-12A10 (antibody, V domains shown)
VH: QVQLQQSGADLVRPGASVRLSCRASGYSFTNYWMNWVKQRPGQGLEWIGMIHPSDSETRLNQKFKDKATLTVDKSSNTAYMQLSSPTSEDSAIYYCARDDFFTMDYWGQGTSVTVSS
VL: DILLTQSPAILSVSPGERVSFSCRASQNIVTSIHWYQQSTNGSPRLLIKYASESISGIPSRFSGSGSGTDFTLTINSVESEDVADYYCQQSNIWPLTFGAGTKLELK
Consider B3, for which the “EC50 (read off the curve)” value in [4] is around 1 µg/mL.

B4: CHG1-M-MIA-10F3 (antibody, V domains shown)
VH: QVQLQQSAAELARPGASVKMSCKASGYTFTSYTMHWVKQRPGQGLEWIGYINPSSGYTEYNQKFKDKTTLTVDKSSTTSYMQLSSLTSDNSAVYYCARGGDWDVDWFVYWGQGTLVTVSA
VL: QIVLTQSPAIMSASPGEKVTITCSASSSISYMHWFQQKPGTSPKLWIYSTSKLASGVPARFSGSGSGTSHSLTISRMEAEDAATYYCQHRSTYPFTFGSGTKLEIK
Take B4: the “EC50 (read off the curve)” value in assay [4] was around 0.5 µg/mL.

B5: antibody 20C6 (antibody, V domains shown)
VH: QITLKESGPGILKPSQTLSLTCSFSGFSLSTSGMGVGWIRQPSGKGLEWLAHIWWDDDKYYNPSLKSQLTISKDTSRNQVFLRITSVDTADTATYYCARRTQGYFDYWGQGTTLTVSS
VL: DIVMTQSPATLSVTPGDRVSLSCRASQSISDYLHWYQQKSHESPRLLIKYASQSISGIPSRFSGSGSGSDFTLSINSVEPEDVGVYYCQNGHSFPWTFGGGTKLEIK
notes: Murine hybridoma antibody of IgG1 isotype as tested
On to B5, for which, in assay [5], the binding result is reported as “binds”. In addition, the “EC50 (read off the curve)” value in assay [4] was around 0.3 µg/mL; in assay [6], around 0.5 µg/mL; in assay [11], around 0.07 µg/mL; in [12], around 0.2 µg/mL. The EC50 in [7] was 0.17 µg/mL; in assay [8], 0.08 µg/mL; in assay [9], 1.58 µg/mL; in assay [10], 0.3 µg/mL.
